T1: rat SEZ6 on RIN-m5F cells (rat, UniProt Q7TSK2 20-991 (mouse entry))
T1 construct: endogenous on RIN-m5F cells; also called rSEZ6
T1 chain: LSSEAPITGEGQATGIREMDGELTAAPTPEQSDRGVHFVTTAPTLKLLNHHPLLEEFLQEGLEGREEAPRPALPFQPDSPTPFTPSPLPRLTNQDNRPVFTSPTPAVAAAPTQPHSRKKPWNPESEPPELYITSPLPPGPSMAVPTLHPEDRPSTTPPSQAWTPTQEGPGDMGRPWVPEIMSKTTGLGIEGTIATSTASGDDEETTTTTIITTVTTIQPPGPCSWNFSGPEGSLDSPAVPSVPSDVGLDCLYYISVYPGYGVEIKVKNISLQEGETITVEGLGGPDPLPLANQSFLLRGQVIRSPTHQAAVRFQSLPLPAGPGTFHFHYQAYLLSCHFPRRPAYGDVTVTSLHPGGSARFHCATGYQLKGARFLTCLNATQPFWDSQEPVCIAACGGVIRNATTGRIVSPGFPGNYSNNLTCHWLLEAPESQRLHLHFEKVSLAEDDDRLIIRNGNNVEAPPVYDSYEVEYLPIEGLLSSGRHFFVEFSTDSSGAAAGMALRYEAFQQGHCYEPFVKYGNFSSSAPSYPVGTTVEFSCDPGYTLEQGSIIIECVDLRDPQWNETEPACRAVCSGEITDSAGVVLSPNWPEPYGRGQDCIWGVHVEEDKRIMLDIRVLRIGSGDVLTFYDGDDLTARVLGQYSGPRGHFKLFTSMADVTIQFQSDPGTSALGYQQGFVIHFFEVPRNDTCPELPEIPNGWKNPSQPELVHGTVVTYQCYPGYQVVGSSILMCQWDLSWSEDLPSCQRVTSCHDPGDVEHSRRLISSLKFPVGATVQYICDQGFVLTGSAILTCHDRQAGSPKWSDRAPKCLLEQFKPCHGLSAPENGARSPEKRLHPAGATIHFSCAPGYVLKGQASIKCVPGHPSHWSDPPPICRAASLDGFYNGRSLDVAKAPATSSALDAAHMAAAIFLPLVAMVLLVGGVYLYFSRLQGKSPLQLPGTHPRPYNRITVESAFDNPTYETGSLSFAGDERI

T2: extracellular domain of cynomolgus SEZ6 on yeast (cynomolgus, UniProt Q53EL9 23-925 (human entry))
T2 construct: yeast display; the whole entry is named; also called cSEZ6; cynomolgus SEZ6 ECD
T2 chain: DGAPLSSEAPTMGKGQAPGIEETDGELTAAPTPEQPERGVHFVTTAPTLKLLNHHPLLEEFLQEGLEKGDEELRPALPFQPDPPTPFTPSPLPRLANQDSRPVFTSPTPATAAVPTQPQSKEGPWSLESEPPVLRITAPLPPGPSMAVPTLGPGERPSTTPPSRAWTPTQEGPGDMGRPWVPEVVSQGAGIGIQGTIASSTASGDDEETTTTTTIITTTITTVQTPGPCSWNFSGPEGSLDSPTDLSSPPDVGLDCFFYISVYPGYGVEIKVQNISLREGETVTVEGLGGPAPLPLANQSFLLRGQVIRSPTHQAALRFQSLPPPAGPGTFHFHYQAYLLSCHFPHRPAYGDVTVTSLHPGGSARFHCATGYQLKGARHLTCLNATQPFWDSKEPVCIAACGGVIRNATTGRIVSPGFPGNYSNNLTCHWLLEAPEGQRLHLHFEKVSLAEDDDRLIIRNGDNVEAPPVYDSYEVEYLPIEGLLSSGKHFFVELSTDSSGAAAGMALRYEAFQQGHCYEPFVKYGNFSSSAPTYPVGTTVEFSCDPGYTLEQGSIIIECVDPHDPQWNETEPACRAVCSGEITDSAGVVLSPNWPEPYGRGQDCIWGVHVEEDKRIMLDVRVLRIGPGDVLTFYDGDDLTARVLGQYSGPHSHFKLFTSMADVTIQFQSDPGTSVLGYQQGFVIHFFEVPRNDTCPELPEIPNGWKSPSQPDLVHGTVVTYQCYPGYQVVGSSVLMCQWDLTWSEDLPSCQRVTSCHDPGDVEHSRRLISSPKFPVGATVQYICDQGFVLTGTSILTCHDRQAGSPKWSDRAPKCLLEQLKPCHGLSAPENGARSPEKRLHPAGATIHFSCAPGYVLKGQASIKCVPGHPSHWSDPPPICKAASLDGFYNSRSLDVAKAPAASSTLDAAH

T3: human SEZ6L ECD-His (human, UniProt Q9BYH1 29-955)
T3 construct: whole entry named
T3 sequence: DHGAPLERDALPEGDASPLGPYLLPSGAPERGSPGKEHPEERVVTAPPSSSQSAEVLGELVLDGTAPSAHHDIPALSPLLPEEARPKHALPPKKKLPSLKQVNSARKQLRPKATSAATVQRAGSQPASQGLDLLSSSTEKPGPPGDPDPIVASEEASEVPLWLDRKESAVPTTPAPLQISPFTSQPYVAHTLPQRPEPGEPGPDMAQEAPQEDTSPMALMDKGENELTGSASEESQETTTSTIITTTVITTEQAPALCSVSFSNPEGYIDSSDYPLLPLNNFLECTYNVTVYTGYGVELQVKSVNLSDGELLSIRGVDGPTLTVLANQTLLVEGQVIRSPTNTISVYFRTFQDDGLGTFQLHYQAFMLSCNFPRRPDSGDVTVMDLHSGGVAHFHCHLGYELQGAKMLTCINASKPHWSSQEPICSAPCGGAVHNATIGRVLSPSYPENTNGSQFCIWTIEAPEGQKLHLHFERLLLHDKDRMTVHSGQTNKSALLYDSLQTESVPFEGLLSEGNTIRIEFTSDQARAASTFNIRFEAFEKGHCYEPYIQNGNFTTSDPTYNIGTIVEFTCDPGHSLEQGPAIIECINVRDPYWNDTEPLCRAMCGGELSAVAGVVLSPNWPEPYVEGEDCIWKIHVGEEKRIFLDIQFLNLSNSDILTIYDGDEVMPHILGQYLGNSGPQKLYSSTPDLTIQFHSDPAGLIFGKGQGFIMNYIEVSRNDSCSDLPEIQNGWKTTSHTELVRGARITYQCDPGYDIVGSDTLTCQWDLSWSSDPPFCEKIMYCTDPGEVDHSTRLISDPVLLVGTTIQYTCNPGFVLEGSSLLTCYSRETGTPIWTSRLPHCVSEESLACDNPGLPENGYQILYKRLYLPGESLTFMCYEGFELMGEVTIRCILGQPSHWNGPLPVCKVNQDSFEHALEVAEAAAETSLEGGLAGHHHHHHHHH

T4: rSEZ6-ECD-His (rat, UniProt Q7TSK2 20-922 (mouse entry))
T4 construct: the whole entry is named; also called rat recombinant SEZ6-His; rat SEZ6 ECD
T4 chain: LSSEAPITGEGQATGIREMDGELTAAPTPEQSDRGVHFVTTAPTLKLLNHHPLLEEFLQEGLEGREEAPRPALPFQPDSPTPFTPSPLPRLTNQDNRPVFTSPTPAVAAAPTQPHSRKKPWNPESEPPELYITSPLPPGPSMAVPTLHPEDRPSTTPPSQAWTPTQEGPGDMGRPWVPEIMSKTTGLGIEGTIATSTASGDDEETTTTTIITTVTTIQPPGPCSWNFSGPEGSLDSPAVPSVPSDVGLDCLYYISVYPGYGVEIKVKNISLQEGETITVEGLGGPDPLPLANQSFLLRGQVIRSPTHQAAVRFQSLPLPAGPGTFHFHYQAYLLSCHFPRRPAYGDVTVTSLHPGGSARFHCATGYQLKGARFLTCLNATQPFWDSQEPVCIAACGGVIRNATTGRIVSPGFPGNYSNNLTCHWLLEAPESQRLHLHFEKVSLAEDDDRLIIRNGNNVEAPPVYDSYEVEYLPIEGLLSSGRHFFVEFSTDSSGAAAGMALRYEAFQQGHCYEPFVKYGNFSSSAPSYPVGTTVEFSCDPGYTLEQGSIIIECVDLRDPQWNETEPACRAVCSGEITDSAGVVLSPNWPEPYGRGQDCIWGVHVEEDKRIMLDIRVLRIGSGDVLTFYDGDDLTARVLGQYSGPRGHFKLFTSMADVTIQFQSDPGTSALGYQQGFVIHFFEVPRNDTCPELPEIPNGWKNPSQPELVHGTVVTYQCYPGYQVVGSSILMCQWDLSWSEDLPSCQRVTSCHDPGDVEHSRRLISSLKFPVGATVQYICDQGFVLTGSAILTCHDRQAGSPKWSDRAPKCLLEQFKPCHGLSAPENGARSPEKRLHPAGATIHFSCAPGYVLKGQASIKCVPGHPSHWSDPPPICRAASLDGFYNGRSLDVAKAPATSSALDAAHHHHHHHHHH


Assays:
[1] = molecular target: T5, hSEZ6-ECD-His (human, UniProt Q53EL9 20-925); experiment: SPR, Biacore 2000 (data not shown)
T5 construct: the whole entry is named; also called recombinant SEZ6-His; human recombinant SEZ6-His

[2] = molecular target: T5, hSEZ6-ECD-His; experiment: bio-layer interferometry (ForteBio RED) or surface plasmon resonance (Biacore 2000) on human SEZ6-His; the table does not say which; column Hu Affinity (Kd, nM)
From the text: (§1) Various methods were used to analyze the binding and immunochemical characteristics of selected SEZ6 modulators generated as set forth above.

[3] = molecular target: T1, rat SEZ6 on RIN-m5F cells; experiment: flow cytometry on RIN-m5F cells expressing rat SEZ6, verified by BLI or SPR on rat SEZ6-His
Method: (§2) Briefly 1×10⁵ cells per well of Neuro2a, RIN-5mF, or yeast displaying cynomolgus SEZ6 cells were incubated for 30 minutes with 50 μL PBS (2% FCS) buffer with 5 μg/mL antibody. […] After incubating for 15 minutes cells were washed twice with the PBS buffer and re-suspended in the same with DAPI for flow cytometry analysis of Neuro2a and Rin-m5F or buffer without DAPI for flow cytometric analysis of yeast cells with cSEZ6.
To verify the cross reactivity data above for rat SEZ6 and to determine the affinity and kinetic constants kₒₙ and koff of the selected effectors, either bio-layer interferometry analysis on a ForteBio RED (ForteBio, Inc.) or surface plasmon resonance on a Biacore 2000 (GE Healthcare) were conducted.

[4] = molecular target: T6, human SEZ6L2 ECD-His (human, UniProt Q6UXD5 28-843); experiment: ELISA on plates coated with SEZ6L2 protein
T6 construct: whole entry named
T6 sequence (Q6UXD5 other isoform, or with tags, fused parts or gaps): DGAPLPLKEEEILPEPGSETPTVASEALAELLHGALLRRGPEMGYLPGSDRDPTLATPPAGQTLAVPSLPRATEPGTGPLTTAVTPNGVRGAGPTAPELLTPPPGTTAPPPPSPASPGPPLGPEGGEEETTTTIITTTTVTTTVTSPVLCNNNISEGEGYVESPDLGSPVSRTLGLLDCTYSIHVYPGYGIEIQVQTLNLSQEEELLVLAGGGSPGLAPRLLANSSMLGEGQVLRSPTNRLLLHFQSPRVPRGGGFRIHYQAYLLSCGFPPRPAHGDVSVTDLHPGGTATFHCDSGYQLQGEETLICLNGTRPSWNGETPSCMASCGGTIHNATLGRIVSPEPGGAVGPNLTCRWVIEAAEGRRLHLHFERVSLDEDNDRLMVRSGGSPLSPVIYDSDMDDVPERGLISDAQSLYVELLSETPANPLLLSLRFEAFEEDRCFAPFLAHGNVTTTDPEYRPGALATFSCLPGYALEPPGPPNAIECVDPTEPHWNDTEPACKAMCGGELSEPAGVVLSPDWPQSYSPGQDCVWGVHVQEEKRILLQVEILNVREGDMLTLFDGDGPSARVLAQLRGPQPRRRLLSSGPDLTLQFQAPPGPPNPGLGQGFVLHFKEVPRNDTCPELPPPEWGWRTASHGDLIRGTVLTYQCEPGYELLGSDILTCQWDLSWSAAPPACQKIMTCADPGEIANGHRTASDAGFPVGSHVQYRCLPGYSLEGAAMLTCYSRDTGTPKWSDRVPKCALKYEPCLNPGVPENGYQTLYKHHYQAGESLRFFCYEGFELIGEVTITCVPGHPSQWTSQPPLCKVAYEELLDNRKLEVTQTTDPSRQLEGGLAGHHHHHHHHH
Method: To determine cross reactivity to family member proteins, SEZ6L and SEZ6L2, an ELISA-based assay was used. Plates were coated with SEZ6, SEZ6L, or SEZ6L2 proteins at 0.2 μg/mL in PBS overnight. After washing with PBS containing 0.05% (v/v) Tween 20 (PB ST), the wells were blocked with 2% (w/v) BSA in PBS (PB SA), 100 μL/well for 1 hour at room temperature. Antibody was then added at 1 μg/mL in 100 μL PBSA for 1 hour at room temperature. After washing with PBST, 100 μL/well HRP-labeled goat anti-mouse IgG diluted 1:2,000 in PBSA for 1 hour at room temperature. […] After developing, an equal volume of 2M H₂SO₄ was added to stop substrate development and analyzed by spectrophotometer at OD 450.

[5] = molecular target: T7, mouse SEZ6 on Neuro2a cells (mouse, UniProt Q7TSK2 20-991); experiment: flow cytometry on Neuro2a cells expressing mouse SEZ6
T7 construct: endogenous on Neuro2a cells; also called murine SEZ6; mSEZ6
Method: as §2

[6] = molecular target: T2, extracellular domain of cynomolgus SEZ6 …; experiment: flow cytometry, yeast displaying cynomolgus SEZ6 ECD, 5 ug/mL antibody
Method: as §2

[7] = molecular target: T3, human SEZ6L ECD-His; experiment: ELISA on plates coated with SEZ6L protein
[8] = molecular target: T7, mouse SEZ6 on Neuro2a cells; experiment: flow cytometry, Neuro2a cells, 5 ug/mL antibody
Method: as §2

[9] = molecular target: T6, human SEZ6L2 ECD-His; experiment: mark of Table 5 for antibodies that bind SEZ6L2
[10] = molecular target: T4, rSEZ6-ECD-His; experiment: bio-layer interferometry (ForteBio RED) or surface plasmon resonance (Biacore 2000) on rat SEZ6-His; the table does not say which; column Rat XR (Kd, nM)
From the text: as §1

[11] = molecular target: T1, rat SEZ6 on RIN-m5F cells; experiment: flow cytometry, RIN-m5F cells, 5 ug/mL antibody
Method: as §2

Binder	binding result [1]	Kd [2]	binding result [3]	binding result [4]	binding result [5]	binding result [6]	binding result [7]	binding result [8]	binding result [9]	Kd [10]	binding result [11]
hSC17.46 (antibody, human IgG1, V domains shown, humanized, human IgG1/kappa) VH: QVQLVQSGAEVKKPGASVKVSCKASGYTFTSYWINWVRQAPGQGLEWIGNIFPDTTTTNYNEKFKGRVTLTRDTSISTAYMELSRLRSDDTAVYYCAREYYDGTYDAMDYWGQGTLVTVSS VL: AIQMTQSPSSLSASVGDRVTITCKASQSVNNDVAWYQQKPGKAPKLLIYYASNRYTGVPSRFSGSGSGTDFTLTISSLQPEDFATYFCQQDYSSPRTFGQGTKLEIK	binds	–	–	–	–	–	–	–	–	–	–
SC17.28 (antibody, V domains shown, murine mAb) VH: QVHLPQSRPELVKPGASVKISCKASGYGFTRSYIHWVKQRPGQGLEWIGYISSGSGGTTYNQKFKGKASLTADNPSSTAYMHLSSLTSEDSAIYFCARGGVRYFDVWGAGTTVTVSS VL: DILLTQSPAILSVSPGEGVSFSCRASQSIGTSIHWYQQRTNGSPRLLIKYASESISGIPSRFSGSGSGTDFTLRINSLESEDIADYYCQQSNSWPLTFGAGTKLELK	–	22.1 nM	–	–	no binding (tested: 5 µg/mL)	–	no binding (tested: 1 µg/mL)	–	binds	31 nM	binds

Further binders by falling Kd [2], results first:

binding result [1]	Kd [2]	binding result [3]	binding result [4]	binding result [5]	binding result [6]	binding result [7]	binding result [8]	binding result [9]	Kd [10]	binding result [11]	Binder
–	6.3 nM	no binding (tested: 5 µg/mL)	no binding (tested: 1 µg/mL)	no binding (tested: 5 µg/mL)	binds	no binding (tested: 1 µg/mL)	–	–	–	–	SC17.36 (antibody, V domains shown, murine mAb) VH: EVQLQESGPSLVKPSQSQSLTCSVTGDSITSDYWNWIRKFPGKKVEYMGYINYSGSTYYNPSLKSRISITRDTSKNQYYLQLNSVTSEDTATYYCARTSYYNKFLPFAYWGQGTLVTVSA VL: QIVLTQSPALMSASPGEKVTMTCSASSSVSYMYWYQQKPRSSPKPWIYLTSNLASGVPARFSGSGSGTSYSLTISSMEAEDAATYYCQQWSSNPPTFGGGTKLEIK
–	5.1 nM	no binding (tested: 5 µg/mL)	no binding (tested: 1 µg/mL)	–	binds	no binding (tested: 1 µg/mL)	binds	–	–	–	SC17.24 (antibody, V domains shown, murine mAb) VH: QVQLQQSDAELVKPGASVKISCKVSGYTFTDHTIHWMKQRPEQGLEWIGYIYPRDGSTKYNEEFKGKATLTADKSSSTAYMQLNSLTSEDSAVYFCARSYSNYFDYWGQGTTLTVSS VL: DIVMSQSPSSLAVSVGEKVTMSCKSSQSLLYSSNQKSYLAWYQQKPGQSPKLLIYWASTRESGVPDRFTGSGSGTDFTLTISSVQAEDLAVYYCKQSYNLRTFGGGTKLEIK
